# Reference: US10934559B2, “Hypersensitive ABA receptors” (The Regents of the University of California, priority 2014, dated 2021)
# Tested on: HAB1
# Assay: PYR1 mutant-HAB1 yeast two-hybrid assay under different ABA concentrations (X-gal staining)
# Format: cell-based
# Conditions: lowest (+)-ABA concentration giving detectable X-gal staining; S. cerevisiae Y190 with pACT-HAB1; 30° C., 48 hours
# Text: The affinity of a receptor for a target ligand is typically determined by non-covalent interactions between ligand-binding residues and the ligand. Mutations in such residues can have negative, positive or neutral effects on the strength of the receptor—ligand interaction. The affinity of a receptor-ligand interaction is intrinsically correlated with the concentration of ligand required to elicit biological effects, with high affinity ligands requiring lower concentrations relative to low affinity ligands. A mutant receptor with increased affinity for a ligand can in some cases elicit greater biological effect relative to a wild type receptor, when both are activated under identical conditions by the same concentration of activating ligand. Thus, mutations that make a receptor hypersensitive to a ligand can be useful for engineering organisms that elicit stronger responses to the ligand relative to wild type. […] Based on these considerations, we set out to systematically establish specific ABA receptor mutations that increase ABA responsiveness. This was done by testing a collection of PYR1 variants with all possible single amino acid substitution mutations in ligand binding residues. Thus we conducted site-saturated mutagenesis of ABA-contacting residues, which we define as those that are within 5A or ABA or ABA-contacting water residues in available X-ray coordinates. This collection of mutants was constructed previously, as described in PCT Application No. PCT/US2012/043121 and Mosquna et al., Proc Natl Acad Sci USA 108: 20838-20843 (2011). This collection of mutants was made by mutagenizing a previously described pBD GAL-PYR1 template (Park, S.-Y., et al. Science 324, 1068-1071 ([…])). In response to ABA, this particular plasmid encodes a fusion protein that binds to a co-expressed GAL4 activation domain-HAB1 fusion protein, encoded by the plasmid pACT-HAB1. This binding reconstitutes a functional GAL4 transcriptional activator and subsequent transcription of a β-galactosidase reporter gene, which in turn enables colorimetric based detection of agonist promoted receptor-PP2C interaction when lysed cells are exposed to the substrate X-gal. The mutant clones were individually transformed into S. cerevisiae strain Y190 containing pACT-HAB1. Yeast transformants were selected for the presence of plasmids on synthetic dextrose (SD) agar plates lacking Leu and Trp (SD-LT) and examined for PP2C interactions by using X-gal staining to monitor β-gal reporter gene expression levels. Individual clones were arrayed into 96 well plates and then spotted onto SD-LT lawn (i.e. one-well) plates containing 0, 0.5 or 5.0 μM (+)-ABA. Each assay plate contained 95 mutant clones and one wild type PYR1 positive control clone. The spotted cells were cultured at 30° C. for 48 hours after which they were lysed by chloroform and stained with an X-gal solution, as previously described (Park, S.-Y., et al. (2009) Science 324, 1068-1071). […] After this initial screening exercise, all positives clones were retested on plates containing […] and stained for galactosidase activity as described above. Mutant clones showing detectable staining on 0.5 μM (+)-ABA or lower were scored as hypersensitive mutants. FIG. 1 depicts results of PYR1 mutant-HAB1 interactions as assayed in a yeast two-hybrid assay under different ABA concentrations, with darker spots indicating increased interaction.
row,Molecule,Minimal conc. For ABA response [µM]
1,"I110S: PYR1 mutant I110S, SEQ ID NO:129 (protein, synthetic Arabidopsis PYR1 mutant I110S) MPSELTPEERSELKNSIAEFHTYQLDPGSCSSLHAQRIHAPPELVWSIVRRFDKPQTYKHFIKSCSVEQNFEMRVGCTRDVIVISGLPANTSTERLDILDDERRVTGFSSIGGEHRLTNYKSVTTVHRFEKENRIWTVVLESYVVDMPEGNSEDDTRMFADTVVKLNLQKLATVAEAMARNSGDGSGSQVT",0.5
2,"E141W: PYR1 mutant E141W, SEQ ID NO:137 (protein, synthetic Arabidopsis PYR1 mutant E141W) MPSELTPEERSELKNSIAEFHTYQLDPGSCSSLHAQRIHAPPELVWSIVRRFDKPQTYKHFIKSCSVEQNFEMRVGCTRDVIVISGLPANTSTERLDILDDERRVTGFSIIGGEHRLTNYKSVTTVHRFEKENRIWTVVLWSYVVDMPEGNSEDDTRMFADTVVKLNLQKLATVAEAMARNSGDGSGSQVT",0.5
3,"E141M: PYR1 mutant E141M, SEQ ID NO:133 (protein, synthetic Arabidopsis PYR1 mutant E141M) MPSELTPEERSELKNSIAEFHTYQLDPGSCSSLHAQRIHAPPELVWSIVRRFDKPQTYKHFIKSCSVEQNFEMRVGCTRDVIVISGLPANTSTERLDILDDERRVTGFSIIGGEHRLTNYKSVTTVHRFEKENRIWTVVLMSYVVDMPEGNSEDDTRMFADTVVKLNLQKLATVAEAMARNSGDGSGSQVT",0.25
4,"F61L: PYR1 mutant F61L, SEQ ID NO:124 (protein, synthetic Arabidopsis PYR1 mutant F61L) MPSELTPEERSELKNSIAEFHTYQLDPGSCSSLHAQRIHAPPELVWSIVRRFDKPQTYKHLIKSCSVEQNFEMRVGCTRDVIVISGLPANTSTERLDILDDERRVTGFSIIGGEHRLTNYKSVTTVHRFEKENRIWTVVLESYVVDMPEGNSEDDTRMFADTVVKLNLQKLATVAEAMARNSGDGSGSQVT",0.25
5,"E141I: PYR1 mutant E141I, SEQ ID NO:131 (protein, synthetic Arabidopsis PYR1 mutant E141I) MPSELTPEERSELKNSIAEFHTYQLDPGSCSSLHAQRIHAPPELVWSIVRRFDKPQTYKHFIKSCSVEQNFEMRVGCTRDVIVISGLPANTSTERLDILDDERRVTGFSIIGGEHRLTNYKSVTTVHRFEKENRIWTVVLISYVVDMPEGNSEDDTRMFADTVVKLNLQKLATVAEAMARNSGDGSGSQVT",0.25
6,"E141C: PYR1 mutant E141C, SEQ ID NO:130 (protein, synthetic Arabidopsis PYR1 mutant E141C) MPSELTPEERSELKNSIAEFHTYQLDPGSCSSLHAQRIHAPPELVWSIVRRFDKPQTYKHFIKSCSVEQNFEMRVGCTRDVIVISGLPANTSTERLDILDDERRVTGFSIIGGEHRLTNYKSVTTVHRFEKENRIWTVVLCSYVVDMPEGNSEDDTRMFADTVVKLNLQKLATVAEAMARNSGDGSGSQVT",0.5
7,"F61M: PYR1 mutant F61M, SEQ ID NO:125 (protein, synthetic Arabidopsis PYR1 mutant F61M) MPSELTPEERSELKNSIAEFHTYQLDPGSCSSLHAQRIHAPPELVWSIVRRFDKPQTYKHMIKSCSVEQNFEMRVGCTRDVIVISGLPANTSTERLDILDDERRVTGFSIIGGEHRLTNYKSVTTVHRFEKENRIWTVVLESYVVDMPEGNSEDDTRMFADTVVKLNLQKLATVAEAMARNSGDGSGSQVT",0.25
8,"E141V: PYR1 mutant E141V, SEQ ID NO:136 (protein, synthetic Arabidopsis PYR1 mutant E141V) MPSELTPEERSELKNSIAEFHTYQLDPGSCSSLHAQRIHAPPELVWSIVRRFDKPQTYKHFIKSCSVEQNFEMRVGCTRDVIVISGLPANTSTERLDILDDERRVTGFSIIGGEHRLTNYKSVTTVHRFEKENRIWTVVLVSYVVDMPEGNSEDDTRMFADTVVKLNLQKLATVAEAMARNSGDGSGSQVT",0.5
9,"V81I: PYR1 mutant V81I, SEQ ID NO:126 (protein, synthetic Arabidopsis PYR1 mutant V81I) MPSELTPEERSELKNSIAEFHTYQLDPGSCSSLHAQRIHAPPELVWSIVRRFDKPQTYKHFIKSCSVEQNFEMRVGCTRDIIVISGLPANTSTERLDILDDERRVTGFSIIGGEHRLTNYKSVTTVHRFEKENRIWTVVLESYVVDMPEGNSEDDTRMFADTVVKLNLQKLATVAEAMARNSGDGSGSQVT",0.25
10,"E141L: PYR1 mutant E141L, SEQ ID NO:132 (protein, synthetic Arabidopsis PYR1 mutant E141L) MPSELTPEERSELKNSIAEFHTYQLDPGSCSSLHAQRIHAPPELVWSIVRRFDKPQTYKHFIKSCSVEQNFEMRVGCTRDVIVISGLPANTSTERLDILDDERRVTGFSIIGGEHRLTNYKSVTTVHRFEKENRIWTVVLLSYVVDMPEGNSEDDTRMFADTVVKLNLQKLATVAEAMARNSGDGSGSQVT",0.25
11,"A160I: PYR1 mutant A160I, SEQ ID NO:140 (protein, synthetic Arabidopsis PYR1 mutant A160I) MPSELTPEERSELKNSIAEFHTYQLDPGSCSSLHAQRIHAPPELVWSIVRRFDKPQTYKHFIKSCSVEQNFEMRVGCTRDVIVISGLPANTSTERLDILDDERRVTGFSIIGGEHRLTNYKSVTTVHRFEKENRIWTVVLESYVVDMPEGNSEDDTRMFIDTVVKLNLQKLATVAEAMARNSGDGSGSQVT",0.25
12,"E141T: PYR1 mutant E141T, SEQ ID NO:135 (protein, synthetic Arabidopsis PYR1 mutant E141T) MPSELTPEERSELKNSIAEFHTYQLDPGSCSSLHAQRIHAPPELVWSIVRRFDKPQTYKHFIKSCSVEQNFEMRVGCTRDVIVISGLPANTSTERLDILDDERRVTGFSIIGGEHRLTNYKSVTTVHRFEKENRIWTVVLTSYVVDMPEGNSEDDTRMFADTVVKLNLQKLATVAEAMARNSGDGSGSQVT",0.5
13,"E141N: PYR1 mutant E141N, SEQ ID NO:134 (protein, synthetic Arabidopsis PYR1 mutant E141N) MPSELTPEERSELKNSIAEFHTYQLDPGSCSSLHAQRIHAPPELVWSIVRRFDKPQTYKHFIKSCSVEQNFEMRVGCTRDVIVISGLPANTSTERLDILDDERRVTGFSIIGGEHRLTNYKSVTTVHRFEKENRIWTVVLNSYVVDMPEGNSEDDTRMFADTVVKLNLQKLATVAEAMARNSGDGSGSQVT",0.5
14,"A160C: PYR1 mutant A160C, SEQ ID NO:139 (protein, synthetic Arabidopsis PYR1 mutant A160C) MPSELTPEERSELKNSIAEFHTYQLDPGSCSSLHAQRIHAPPELVWSIVRRFDKPQTYKHFIKSCSVEQNFEMRVGCTRDVIVISGLPANTSTERLDILDDERRVTGFSIIGGEHRLTNYKSVTTVHRFEKENRIWTVVLESYVVDMPEGNSEDDTRMFCDTVVKLNLQKLATVAEAMARNSGDGSGSQVT",0.25
15,"E141Y: PYR1 mutant E141Y, SEQ ID NO:138 (protein, synthetic Arabidopsis PYR1 mutant E141Y) MPSELTPEERSELKNSIAEFHTYQLDPGSCSSLHAQRIHAPPELVWSIVRRFDKPQTYKHFIKSCSVEQNFEMRVGCTRDVIVISGLPANTSTERLDILDDERRVTGFSIIGGEHRLTNYKSVTTVHRFEKENRIWTVVLYSYVVDMPEGNSEDDTRMFADTVVKLNLQKLATVAEAMARNSGDGSGSQVT",0.25
